For experiment [1], the target named is DP4/MAGE-A3243-258 TCR, clone R12C9.
Experiment [2] has the same target. The source holds these as a separate data set.

Consider one substance from patent US20220291215A1.

As for Control (peptide-MHC), the % dimer+ CD4+ cells in experiment [1] worked out at 0.4%. This substance also showed a % dimer+ Vβ22+ cells in experiment [2] of 0.1%.
